The values that follow come from patent US20240228562A1, “NOVEL LIPOCALIN MUTEINS SPECIFIC FOR CONNECTIVE TISSUE GROWTH FACTOR (CTGF)” (PIERIS PHARMACEUTICALS GMBH, priority 2021, published 2024).

The target of test [1] is T1, huWISP-2 (Homo sapiens, UniProt O76076).
T1 sequence (O76076 24-250): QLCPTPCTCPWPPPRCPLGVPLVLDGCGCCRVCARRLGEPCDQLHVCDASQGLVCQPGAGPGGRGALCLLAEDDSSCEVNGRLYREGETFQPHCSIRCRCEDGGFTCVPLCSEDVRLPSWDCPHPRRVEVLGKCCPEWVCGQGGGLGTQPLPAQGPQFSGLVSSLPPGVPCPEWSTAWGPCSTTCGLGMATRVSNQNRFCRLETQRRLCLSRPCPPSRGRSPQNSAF
As to the kind of experiment: Specificity ELISA (CCN proteins), huWISP-2. Type of test: binding. As to conditions: coated 1 μg/ml; assessed when human CTGF signal approached saturation. Here is the method:
(§1) Binding of muteins to closely related proteins of CTGF was tested by an ELISA assay. In detail, a 384-well plate suitable for fluorescence measurements (Greiner FLUOTRAC™ 600, black flat bottom, high-binding) was coated with 20 μl of human CTGF or the other members of the CCN protein family at a concentration of 1 μg/ml in PBS over night at 4° C. After washing with PBS with 0.05% Tween 20, wells were blocked with 100 μl blocking buffer containing 0.1% Tween 20 and 2% BSA (PBS-T/BSA) for 1 h at room temperature. 20 μl of serially diluted muteins starting at 1000 nM were incubated in PBS-T/BSA for 1 h at room temperature (RT).
(§2) The residual supernatants were discarded and 20 μl HRP-labeled anti-NGAL or anti-Strep-Tag antibody was added at a predetermined optimal concentration in PBS-T/BSA and incubated for 1 h at RT. After washing, 20 μl fluorogenic HRP substrate (QuantaBlu, Thermo) was added to each well, and the reaction was allowed to proceed for 2 to 60 minutes. The fluorescence intensity of every well on the plate was read using a fluorescence microplate reader (Tecan). When the signal for human CTGF approached saturation, the cross reactivity to the other proteins was assessed.
On the technique in general: An ELISA detects its analyte on a solid surface through an enzyme-linked reagent.

Test [2] has as its target T2, Human CTGF with a human IgG1 Fc Tag (Homo sapiens, UniProt P29279, H83D).
T2 construct: purchased Creative Biomart
The test is described as follows: SPR epitope analysis (simultaneous binding). Conditions: SPR, mixed and injected simultaneously at 750 nM or 1000 nM. How it is done: Surface plasmon resonance (SPR) was used to analyze the epitopes and determine simultaneous binding of different lipocalin muteins. Human CTGF with a human IgG1 Fc Tag was directly immobilized to a CM5 Chip (Creative Biomart, 10 μg/mL in 10 mM sodium acetate pH 4.5) until an immobilization level of 470-630 resonance units was achieved. The reference channel was activated/deactivated. […] As control, single lipocalin muteins were injected and the resulting signal of single and mixtures was compared at the end of the injection. The chip was regenerated with 3 M MgCl2 and Glycine-HCl pH1.5 for each 60 s at a flowrate of 15 μL/min.
“Yes” means simultaneous binding is possible, “no” stands for same or overlapping epitope, “n.t.” stands for not tested.

Test [3] deals with T3, huWISP-1 (Homo sapiens, UniProt O95388).
T3 sequence (O95388 23-367): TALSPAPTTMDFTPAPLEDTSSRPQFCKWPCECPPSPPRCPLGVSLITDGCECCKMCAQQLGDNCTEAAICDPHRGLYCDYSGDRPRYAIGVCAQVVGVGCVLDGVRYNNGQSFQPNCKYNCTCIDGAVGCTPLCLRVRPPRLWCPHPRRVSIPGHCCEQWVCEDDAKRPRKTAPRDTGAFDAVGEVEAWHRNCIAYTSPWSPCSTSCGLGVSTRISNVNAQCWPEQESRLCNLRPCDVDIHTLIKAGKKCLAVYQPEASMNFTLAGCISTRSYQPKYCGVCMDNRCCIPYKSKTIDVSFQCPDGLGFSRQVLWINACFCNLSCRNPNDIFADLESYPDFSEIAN
The test is described as follows: Specificity ELISA (CCN proteins), huWISP-1. Format: binding. Conditions: coated 1 μg/ml; assessed when human CTGF signal approached saturation. Here is the method:
as §1, §2

Test [4] has as its target T4, Rat CTGF (Rattus norvegicus, UniProt Q9R1E9).
T4 construct: purchased R&D Systems
T4 sequence (Q9R1E9 25-347): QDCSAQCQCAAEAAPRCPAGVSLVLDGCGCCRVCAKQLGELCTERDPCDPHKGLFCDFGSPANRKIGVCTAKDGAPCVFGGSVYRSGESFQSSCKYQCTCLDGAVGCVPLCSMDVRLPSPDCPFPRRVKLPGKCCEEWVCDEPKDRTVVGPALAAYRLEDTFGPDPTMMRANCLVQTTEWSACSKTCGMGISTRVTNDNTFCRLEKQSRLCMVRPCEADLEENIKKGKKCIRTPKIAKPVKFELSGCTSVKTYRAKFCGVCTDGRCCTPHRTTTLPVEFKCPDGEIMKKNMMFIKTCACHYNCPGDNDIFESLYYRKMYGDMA
As to the kind of experiment: SPR binding kinetics and affinity, rat CTGF. As to conditions: 25° C., 1:1 binding model. The essentials:
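Targets either amine-coupled to CM5 chip (300–1100 RU; Fc-tagged human, untagged rat/murine) or Fc-captured via anti-human IgG; muteins injected 180 s contact, 900–3600 s dissociation, 30 μL/min, 25° C. Double-referenced sensorgrams fit to 1:1 model giving kon, koff and KD.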
On the technique in general: In SPR one partner is held on a chip, and binding of the other changes the refractive index at the surface.

T2 sequence (P29279 with tags, fused parts or gaps H83D): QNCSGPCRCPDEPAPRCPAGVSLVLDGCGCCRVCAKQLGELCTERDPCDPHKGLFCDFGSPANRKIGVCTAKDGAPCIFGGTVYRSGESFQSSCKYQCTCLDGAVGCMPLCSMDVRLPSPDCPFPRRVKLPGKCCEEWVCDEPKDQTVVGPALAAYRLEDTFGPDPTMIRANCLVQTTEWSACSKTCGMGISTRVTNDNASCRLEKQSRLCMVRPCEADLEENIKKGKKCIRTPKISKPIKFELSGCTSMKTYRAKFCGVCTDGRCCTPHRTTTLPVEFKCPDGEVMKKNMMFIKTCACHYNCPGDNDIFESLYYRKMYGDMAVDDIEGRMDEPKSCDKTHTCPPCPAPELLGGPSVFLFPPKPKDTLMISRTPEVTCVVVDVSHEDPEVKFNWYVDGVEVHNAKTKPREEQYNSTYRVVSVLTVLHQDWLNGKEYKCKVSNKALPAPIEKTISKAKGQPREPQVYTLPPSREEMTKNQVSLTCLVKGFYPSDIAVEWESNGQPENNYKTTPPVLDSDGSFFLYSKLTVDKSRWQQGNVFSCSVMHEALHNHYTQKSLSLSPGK

B1: SEQ ID NO: 7: parent CTGF-binding hNGAL lipocalin mutein (protein)
chain: QDSTSDLIPAPPLSKVPLQQNFQDNQFHGKWYVVGLAGNYGLRTDKRPSKMFATIYELKEDKSYDVTSVRFEQERCHYTIRTFVPGSQPGEFTTGSIKSRPGQTSSLVRVVSTNYNQHAMVFFKSVIQNREYFAITLYGRTKELTSELKENFIRFSKSLGLPENHIVFPVPIDQCIDG
modifications: lipocalin mutein
What is called Kd is the free concentration of one partner at which half of the binding sites on the other are occupied at equilibrium, for simple one-to-one binding. In the case of B1, the “ELISA binding to huWISP-2” value in test [1] is given as “No binding”. In test [2], the “Simultaneous binding with SEQ ID NO: 7” value is recorded as “no”, the “Simultaneous binding with SEQ ID NO: 9” value is reported as “no”, the “Simultaneous binding with SEQ ID NO: 25” value is “yes” and the “Simultaneous binding with SEQ ID NO: 29” value is listed as “yes”. Further, in test [2], the “Simultaneous binding with SEQ ID NO: 60 and 61 (control antibody)” value is recorded as “no”. For the same molecule, the “ELISA binding to huWISP-1” value in test [3] was “No binding”. Moreover, in test [4], the Kd was 62.8 nM, the “Rat CTGF koff” value is 0.00754 s⁻¹ and the “Rat CTGF kon” value was found to be 120000 M⁻¹ s⁻¹.
